Assay results published in article PMC4338599 (Science (New York, N.Y.), 2015).

Biological target: the molecule itself
Experiment: native MS

B1: PAXX residues 1-145 (PAXX^1-145) (domain or fragment)
chain: MDPLSPPLCTLPPGPEPPRFVCYCEGEESGEGDRGGFNLYVTDAAELWSTCFTPDSLAALKARFGLSAAEDITPRFRAACEQQAVALTLQEDRASLTLSGGPSALAFDLSKVPGPEAAPRLRALTLGLAKRVWSLERRLAAAEET
  stoichiometry N: 2
